Article PMC2563036, “The HLH-6 Transcription Factor Regulates C. elegans Pharyngeal Gland Development and Function”

Assays:
[1] = target: HLH-2;HLH-3 (Caenorhabditis elegans;Caenorhabditis …, UniProt G5EEG9;Q22717 1-399;1-170, |); assay: EMSA; co-translated in reticulocyte lysate; poly(dI-dC); EMSA with poly(dI-dC) (37 ng/ug as printed); 5% native PAGE, 100 V, 1 h, room temperature, 45 mM Tris, 45 mM boric acid, 1 mM EDTA pH 8; binding buffer not given in the material; conditions: protein: ivt;ivt; tags: ;His; copies: 1;1; as annealed 5' overhangs of 2 nt (TG) on both strands; end labelled with Klenow, which may fill them in
[2] = target: HLH-2;HLH-6 (Caenorhabditis elegans;Caenorhabditis …, UniProt G5EEG9;Q10007 1-399;1-268, |); assay: EMSA; reticulocyte lysate; poly(dI-dC); no shift though both proteins expressed; EMSA with poly(dI-dC) (37 ng/ug as printed); 5% native PAGE, 100 V, 1 h, room temperature, 45 mM Tris, 45 mM boric acid, 1 mM EDTA pH 8; binding buffer not given in the material; conditions: protein: ivt;ivt; tags: ;; copies: 1;1; as annealed 5' overhangs of 2 nt (TG) on both strands; end labelled with Klenow, which may fill them in
HLH-2;HLH-6, sequence (G5EEG9 whole entry, chain 1 of 2): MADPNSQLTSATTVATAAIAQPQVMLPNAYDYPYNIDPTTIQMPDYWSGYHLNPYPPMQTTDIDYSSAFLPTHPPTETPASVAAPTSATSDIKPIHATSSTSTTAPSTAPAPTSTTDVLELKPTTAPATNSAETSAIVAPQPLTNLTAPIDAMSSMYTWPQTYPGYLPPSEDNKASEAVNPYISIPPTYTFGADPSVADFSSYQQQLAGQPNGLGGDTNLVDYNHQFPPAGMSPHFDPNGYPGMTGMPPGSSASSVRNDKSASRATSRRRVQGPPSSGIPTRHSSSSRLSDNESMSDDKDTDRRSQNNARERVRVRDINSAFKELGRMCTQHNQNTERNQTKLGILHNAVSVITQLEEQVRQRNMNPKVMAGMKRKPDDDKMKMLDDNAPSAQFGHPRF
HLH-2;HLH-6, sequence (Q10007 whole entry, chain 2 of 2): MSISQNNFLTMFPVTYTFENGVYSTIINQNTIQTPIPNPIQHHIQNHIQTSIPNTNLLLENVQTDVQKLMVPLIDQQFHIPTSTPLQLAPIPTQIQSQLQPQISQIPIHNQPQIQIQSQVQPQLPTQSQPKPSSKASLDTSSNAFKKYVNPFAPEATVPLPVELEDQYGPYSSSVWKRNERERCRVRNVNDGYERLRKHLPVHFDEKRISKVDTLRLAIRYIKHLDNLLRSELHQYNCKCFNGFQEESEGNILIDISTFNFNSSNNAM

HLH-2;HLH-3, sequence (G5EEG9 whole entry, chain 1 of 2): as the sequence (G5EEG9 whole entry, chain 1 of 2) above
HLH-2;HLH-3, sequence (Q22717 whole entry, chain 2 of 2): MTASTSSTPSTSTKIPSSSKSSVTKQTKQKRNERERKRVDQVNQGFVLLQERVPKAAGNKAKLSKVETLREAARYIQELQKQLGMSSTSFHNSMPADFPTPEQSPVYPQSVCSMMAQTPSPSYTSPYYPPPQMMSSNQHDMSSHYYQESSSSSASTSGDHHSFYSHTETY

B1: phat-3 PGM1 probe (oGD137/oGD138) (dsDNA)
DNA 1: TGCAAACTTGATGCACCTGTTCAAATGTATGCCC
DNA 2: TGGGGCATACATTTGAACAGGTGCATCAAGTTTG
binding result [1]: binds
binding result [2]: no binding
